# Measurements as given in patent publication US20230212549A1, “COMPOUNDS COMPRISING A […] LIGAND AND USE THEREOF” (priority 2021, published 2023).
# Bridge positions count the residues as written; N and C are the ends.
# B1: Hex-[Cys(tMeBn(DOTA-PP))-Pro-Pro-Thr-Gln-Phe-Cys]-Asp-NH2 (peptide)
# peptide: Hex-CPPTQFCD-NH2
# modifications: bridge 1-7; not fully specified (bridges); printed as Hex-[Cys(tMeBn(DOTA-PP))-Pro-Pro-Thr-Gln-Phe-Cys]-Asp-NH2
# B2: Hex-[Cys(tMeBn(DOTA-AET))-Pro-Pro-Thr-Gln-Phe-Cys]-OH (peptide)
# peptide: Hex-CPPTQFC-OH
# modifications: bridge 1-7; not fully specified (bridges); printed as Hex-[Cys(tMeBn(DOTA-AET))-Pro-Pro-Thr-Gln-Phe-Cys]-OH
# How the values were obtained:
# Assay in all cases: cell-based or functional assay
# [1] = target: T1, Acetylcholinesterase (h) (human), P22303
# T1 chain: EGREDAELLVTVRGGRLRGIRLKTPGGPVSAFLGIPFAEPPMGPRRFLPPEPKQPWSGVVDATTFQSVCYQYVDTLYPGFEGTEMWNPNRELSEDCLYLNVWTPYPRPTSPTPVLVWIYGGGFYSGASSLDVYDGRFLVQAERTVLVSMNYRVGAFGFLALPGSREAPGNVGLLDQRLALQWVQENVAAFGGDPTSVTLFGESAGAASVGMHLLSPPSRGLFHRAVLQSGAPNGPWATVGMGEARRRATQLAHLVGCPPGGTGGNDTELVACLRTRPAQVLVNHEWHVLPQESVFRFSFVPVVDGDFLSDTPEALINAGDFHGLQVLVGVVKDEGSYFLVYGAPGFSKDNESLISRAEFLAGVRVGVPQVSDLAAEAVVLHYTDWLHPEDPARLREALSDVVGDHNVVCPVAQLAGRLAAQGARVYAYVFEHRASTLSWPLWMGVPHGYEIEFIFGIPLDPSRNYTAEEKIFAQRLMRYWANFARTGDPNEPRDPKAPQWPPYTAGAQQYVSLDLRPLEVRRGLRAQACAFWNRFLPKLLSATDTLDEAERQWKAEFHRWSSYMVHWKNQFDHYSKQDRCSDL
# [2] = target: Ubiquitin carboxy-terminal hydrolase L1, P09936
# Caspase-7, P55210 = target: T2, Caspase-7, P55210
# T2 chain: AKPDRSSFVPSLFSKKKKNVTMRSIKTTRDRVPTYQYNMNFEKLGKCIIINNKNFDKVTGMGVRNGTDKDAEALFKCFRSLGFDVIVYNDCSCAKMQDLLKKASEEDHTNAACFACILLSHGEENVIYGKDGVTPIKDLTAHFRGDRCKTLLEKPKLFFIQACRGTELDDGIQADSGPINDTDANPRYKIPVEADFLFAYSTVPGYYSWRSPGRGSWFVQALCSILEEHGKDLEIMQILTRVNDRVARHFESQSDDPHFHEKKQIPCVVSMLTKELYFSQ
# [3] = target: Ubiquitin carboxyl-terminal hydrolase 7, Q93009
# Renin, P00797 = target: T3, Renin, P00797
# T3 chain: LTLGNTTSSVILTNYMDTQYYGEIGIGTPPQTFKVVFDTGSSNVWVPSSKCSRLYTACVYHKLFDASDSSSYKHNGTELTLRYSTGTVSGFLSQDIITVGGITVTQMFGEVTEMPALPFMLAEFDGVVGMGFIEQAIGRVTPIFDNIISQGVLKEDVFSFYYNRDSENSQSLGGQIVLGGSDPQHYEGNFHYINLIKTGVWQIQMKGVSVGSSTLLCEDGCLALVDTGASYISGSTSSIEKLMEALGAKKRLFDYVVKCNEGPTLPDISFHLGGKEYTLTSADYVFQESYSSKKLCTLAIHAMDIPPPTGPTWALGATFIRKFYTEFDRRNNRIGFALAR
# Ataxin3, P54252 = target: Ataxin3, P54252
# [4] = target: Ubiquitin carboxyl-terminal hydrolase 14, P54578
# Cathepsin F, Q9UBX1 = target: T4, Cathepsin F, Q9UBX1
# T4 chain: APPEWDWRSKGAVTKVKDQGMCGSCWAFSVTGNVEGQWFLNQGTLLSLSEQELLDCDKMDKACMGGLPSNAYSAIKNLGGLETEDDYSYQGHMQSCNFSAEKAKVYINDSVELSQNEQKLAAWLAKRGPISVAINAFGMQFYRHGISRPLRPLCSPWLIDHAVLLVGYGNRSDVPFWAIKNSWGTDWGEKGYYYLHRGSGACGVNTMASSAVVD
# DPP7, Q9UHL4 = target: DPP7, Q9UHL4
# Cathepsin L, P07711 = target: Cathepsin L, P07711
# [5] = target: T5, Ubiquitin carboxyl-terminal hydrolase 5, P45974
# T5 chain: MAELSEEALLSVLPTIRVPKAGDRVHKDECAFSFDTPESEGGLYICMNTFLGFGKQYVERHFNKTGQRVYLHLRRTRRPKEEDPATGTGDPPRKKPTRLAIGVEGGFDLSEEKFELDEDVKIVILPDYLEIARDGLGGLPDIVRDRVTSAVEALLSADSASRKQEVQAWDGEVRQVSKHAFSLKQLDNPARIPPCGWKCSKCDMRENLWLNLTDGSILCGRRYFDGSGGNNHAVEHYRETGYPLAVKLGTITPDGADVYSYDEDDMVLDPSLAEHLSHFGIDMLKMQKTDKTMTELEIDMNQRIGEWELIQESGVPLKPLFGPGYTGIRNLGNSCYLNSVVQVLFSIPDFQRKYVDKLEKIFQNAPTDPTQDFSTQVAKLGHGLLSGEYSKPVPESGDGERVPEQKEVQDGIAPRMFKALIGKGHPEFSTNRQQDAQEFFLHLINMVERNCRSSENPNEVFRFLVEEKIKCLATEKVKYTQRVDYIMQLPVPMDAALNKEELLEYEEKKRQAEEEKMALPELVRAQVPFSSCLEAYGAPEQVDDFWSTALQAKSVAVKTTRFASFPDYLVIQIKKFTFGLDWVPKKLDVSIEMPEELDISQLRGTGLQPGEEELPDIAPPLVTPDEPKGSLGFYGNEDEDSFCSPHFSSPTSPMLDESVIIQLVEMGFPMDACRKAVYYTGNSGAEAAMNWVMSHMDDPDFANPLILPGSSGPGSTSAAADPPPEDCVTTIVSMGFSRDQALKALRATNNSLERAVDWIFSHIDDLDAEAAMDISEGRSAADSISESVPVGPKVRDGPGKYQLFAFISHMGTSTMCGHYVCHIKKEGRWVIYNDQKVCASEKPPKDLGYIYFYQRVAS
# Sequence of Ubiquitin carboxyl-terminal hydrolase 7, Q93009 (Q93009 whole entry): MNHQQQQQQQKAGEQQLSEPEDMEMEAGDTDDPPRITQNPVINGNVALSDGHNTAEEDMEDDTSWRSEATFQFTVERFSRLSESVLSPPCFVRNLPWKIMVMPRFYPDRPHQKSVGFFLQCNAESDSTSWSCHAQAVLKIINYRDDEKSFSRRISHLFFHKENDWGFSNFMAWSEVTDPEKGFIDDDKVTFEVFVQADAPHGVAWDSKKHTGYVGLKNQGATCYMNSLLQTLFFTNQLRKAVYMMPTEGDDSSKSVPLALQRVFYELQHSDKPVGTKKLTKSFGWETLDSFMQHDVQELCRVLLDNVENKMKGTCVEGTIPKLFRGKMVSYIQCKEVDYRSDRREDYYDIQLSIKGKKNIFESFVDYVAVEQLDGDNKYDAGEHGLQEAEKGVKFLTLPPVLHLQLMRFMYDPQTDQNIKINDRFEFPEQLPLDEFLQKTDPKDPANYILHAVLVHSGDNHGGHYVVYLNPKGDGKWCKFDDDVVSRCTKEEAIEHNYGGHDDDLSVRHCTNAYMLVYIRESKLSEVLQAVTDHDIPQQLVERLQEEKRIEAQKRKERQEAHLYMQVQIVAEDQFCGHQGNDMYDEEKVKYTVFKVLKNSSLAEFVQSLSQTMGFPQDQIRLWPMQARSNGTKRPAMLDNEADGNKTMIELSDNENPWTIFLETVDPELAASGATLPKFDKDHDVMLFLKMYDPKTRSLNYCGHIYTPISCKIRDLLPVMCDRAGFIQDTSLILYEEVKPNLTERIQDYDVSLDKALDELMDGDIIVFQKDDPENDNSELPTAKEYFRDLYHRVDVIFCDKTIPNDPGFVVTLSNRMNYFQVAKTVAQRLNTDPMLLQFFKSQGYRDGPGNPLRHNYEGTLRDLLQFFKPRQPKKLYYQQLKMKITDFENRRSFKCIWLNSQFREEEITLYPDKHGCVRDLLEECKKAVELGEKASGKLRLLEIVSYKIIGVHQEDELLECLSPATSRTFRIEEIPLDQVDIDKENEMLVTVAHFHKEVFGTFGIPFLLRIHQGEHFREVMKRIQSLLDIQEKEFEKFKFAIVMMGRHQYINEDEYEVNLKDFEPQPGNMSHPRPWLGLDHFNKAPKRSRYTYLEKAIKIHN
# Sequence of Ataxin3, P54252 (P54252 whole entry): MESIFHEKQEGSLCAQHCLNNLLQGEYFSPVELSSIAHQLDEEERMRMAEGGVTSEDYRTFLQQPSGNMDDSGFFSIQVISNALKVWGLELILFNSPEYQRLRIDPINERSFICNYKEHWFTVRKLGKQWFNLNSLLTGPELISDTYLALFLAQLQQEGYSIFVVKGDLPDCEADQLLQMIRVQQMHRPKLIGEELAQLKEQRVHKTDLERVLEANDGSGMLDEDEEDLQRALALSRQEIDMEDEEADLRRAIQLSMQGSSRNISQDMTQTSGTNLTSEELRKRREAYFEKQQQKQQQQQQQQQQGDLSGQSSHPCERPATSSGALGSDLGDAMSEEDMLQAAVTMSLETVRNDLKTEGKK
# Sequence of Cathepsin L, P07711 (P07711 114-333 limits assumed): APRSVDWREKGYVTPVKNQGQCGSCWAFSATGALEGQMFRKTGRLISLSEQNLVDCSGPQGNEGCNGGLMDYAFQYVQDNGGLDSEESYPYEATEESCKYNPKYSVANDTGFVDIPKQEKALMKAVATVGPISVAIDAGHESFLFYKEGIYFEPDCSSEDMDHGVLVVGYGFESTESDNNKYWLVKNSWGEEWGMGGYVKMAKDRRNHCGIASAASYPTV
# Sequence of Ubiquitin carboxyl-terminal hydrolase 14, P54578 (P54578 whole entry): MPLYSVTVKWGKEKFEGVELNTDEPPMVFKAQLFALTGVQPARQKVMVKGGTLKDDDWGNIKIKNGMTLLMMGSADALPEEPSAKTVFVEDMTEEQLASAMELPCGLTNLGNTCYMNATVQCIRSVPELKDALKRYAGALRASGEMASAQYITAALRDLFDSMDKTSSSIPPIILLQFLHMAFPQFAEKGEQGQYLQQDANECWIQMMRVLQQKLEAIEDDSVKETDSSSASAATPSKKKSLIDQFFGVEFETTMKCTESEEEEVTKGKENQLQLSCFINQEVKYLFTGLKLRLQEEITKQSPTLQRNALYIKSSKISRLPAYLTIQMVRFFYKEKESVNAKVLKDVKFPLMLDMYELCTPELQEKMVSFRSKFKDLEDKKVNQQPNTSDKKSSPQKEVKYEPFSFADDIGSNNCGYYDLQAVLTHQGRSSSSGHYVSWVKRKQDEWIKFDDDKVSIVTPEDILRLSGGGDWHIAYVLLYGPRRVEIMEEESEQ
# Sequence of Ubiquitin carboxy-terminal hydrolase L1, P09936 (P09936 whole entry): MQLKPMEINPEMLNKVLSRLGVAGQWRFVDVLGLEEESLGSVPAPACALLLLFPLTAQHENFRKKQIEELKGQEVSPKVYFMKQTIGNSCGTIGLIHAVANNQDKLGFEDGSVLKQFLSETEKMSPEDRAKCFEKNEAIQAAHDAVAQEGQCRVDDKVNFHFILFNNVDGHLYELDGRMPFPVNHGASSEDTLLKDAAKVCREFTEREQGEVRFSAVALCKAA
Binder,"% inhibition of control enzyme activity, compound at 10 µM [1]",Percentage inhibition (%) at 1 µM [2],Percentage inhibition (%) at 10 µM [2],"Percentage inhibition (%) at 1 µM (Caspase-7, P55210)","Percentage inhibition (%) at 10 µM (Caspase-7, P55210)",Percentage inhibition (%) at 1 µM [3],Percentage inhibition (%) at 10 µM [3],"Percentage inhibition (%) at 1 µM (Renin, P00797)","Percentage inhibition (%) at 10 µM (Renin, P00797)","Percentage inhibition (%) at 1 µM (Ataxin3, P54252)","Percentage inhibition (%) at 10 µM (Ataxin3, P54252)",Percentage inhibition (%) at 1 µM [4],Percentage inhibition (%) at 10 µM [4],"Percentage inhibition (%) at 1 µM (Cathepsin F, Q9UBX1)","Percentage inhibition (%) at 10 µM (Cathepsin F, Q9UBX1)","Percentage inhibition (%) at 1 µM (DPP7, Q9UHL4)","Percentage inhibition (%) at 10 µM (DPP7, Q9UHL4)","Percentage inhibition (%) at 1 µM (Cathepsin L, P07711)","Percentage inhibition (%) at 10 µM (Cathepsin L, P07711)",Percentage inhibition (%) at 1 µM [5],also measured
B1,-6%,-2%,4%,-3%,-3%,5%,5%,-1%,3%,1%,10%,-1%,5%,-3%,-24%,2%,-3%,3%,6%,3%,Percentage inhibition (%) at 10 µM [5]: 46%
B2,1%,-4%,4%,-1%,-7%,1%,1%,0%,-1%,2%,-1%,1%,2%,-23%,-25%,-1%,-7%,0%,-6%,-4%,Percentage inhibition (%) at 10 µM [5]: -2%
